Laboratory results reported in US20200338049A1, “AGENT FOR TREATING FABRY DISEASE, ANALGESIC FOR EXTERNAL USE AND PERSPIRATION ACCELERATOR” (OSAKA UNIVERSITY, priority 2016, published 2020).

B1: agalsidase beta (protein, UniProt P06280 32-429, looked up)
Alpha-galactosidase A: LDNGLARTPTMGWLHWERFMCNLDCQEEPDSCISEKLFMEMAELMVSEGWKDAGYEYLCIDDCWMAPQRDSEGRLQADPQRFPHGIRQLANYVHSKGLKLGIYADVGNKTCAGFPGSFGYYDIDAQTFADWGVDLLKFDGCYCDSLENLADGYKHMSLALNRTGRSIVYSCEWPLYMWPFQKPNYTEIRQYCNHWRNFADIDDSWKSIKSILDWTSFNQERIVDVAGPGGWNDPDMLVIGNFGLSWNQQVTQMALWAIMAAPLFMSNDLRHISPQAKALLQDKDVIAINQDPLGKQGYQLRQGDNFEVWERPLSGLAWAVAMINRQEIGGPRSYTIAVASLGKGVACNPACFITQLLPVKRKLGFYEWTSRLRSHINPTGTVLLQLENTMQMSLKDLL
modifications: agalsidase beta
notes: enzyme replacement therapy; enzyme used was agalsidase beta, usual dosages
B2: BDNF: recombinant BDNF carrier free, brain-derived neurotrophic factor (protein, UniProt P23560 19-247, looked up)
Neurotrophic factor BDNF …: APMKEANIRGQGGLAYPGVRTHGTLESVNGPKAGSRGLTSLADTFEHVIEELLDEDQKVRPNEENNKDADLYTSRVMLSSQVPLEPPLLFLLEEYKNYLDAANMSMRVRRHSDPARRGELSVCDSISEWVTAADKKTAVDMSGGTVTVLEKVPVSKGQLKQYFYETKCNPMGYTKEGCRGIDKRHWNSQCRTTQSYVRALTMDSKKRIGWRFIRIDTSCVCTLTIKRGR

What was measured:
[1] = test system: p-mTOR; experiment: p-mTOR staining of angiokeratoma of Fabry disease patient before and after ERT; format: in vivo, human; conditions: p-mTOR fluorescent staining
From the text: (§1) The activation state of mTOR in an angiokeratoma of a Fabry disease patient, and the effects of ERT (conventional treatment method to treat Fabry disease) on an angiokeratoma, were checked. An enzyme used in ERT of this test was agalsidase beta, and specific processes of the treatment method were based on usual dosages.
A piece of the skin of a Fabry disease patient including an angiokeratoma lesion was stained with an anti-p-mTOR antibody, and the activation state of mTOR was checked.

[2] = test system: angiokeratoma of Fabry disease patient; experiment: Course of angiokeratomas of Fabry disease patient receiving ERT; format: in vivo, human; conditions: ERT over eight years
From the text: as §1

[3] = test system: dorsal root ganglion cells (DRG cells); experiment: Axon extension of cultured dorsal root ganglion cells; format: cell-based; conditions: DRG cells of 20-week-old wild-type mouse
Protocol: Dorsal root ganglion cells (DRG cells) were taken from a 20-week-old wild-type mouse. The dorsal root ganglion nerve cells thus taken were first subjected to extraction with Ham's 12 containing 30% Percoll, and then were cultured at 37° C. for 2 days with the use of a Gibco Neurobasal-A medium (manufactured by Gibco) supplemented with 2 mM GlutaMaxl, 2% B-27 w/o Vitamin A, 5 ng/mL recombinant BDNF carrier free, and 10 ng/mL recombinant human-beta NGF carrier free. Then, the culture medium was replaced with a medium supplemented with 2 mM GlutaMaxl, 2% B-27 w/o Vitamin A, 10 μM Retinoic Acidn, and 100 ng/mL recombinant human-beta NGF carrier free, and then a comparative observation of the extension of axons was carried out with a microscope (BZ-X710, manufactured by KEYENCE), and microscope images were taken.

Row | Molecule | mTOR activity in angiokeratoma after ERT [1] | effect on angiokeratomas [2] | extension of axons [3]
1 | B1 | mTOR is also active | not effective in treating angiokeratomas | –
2 | B2 | – | – | axons were found to have extended
